Data from article PMC2749821.
Each block holds one binder with its values, some of them ahead of it.

Assays:
activin A, human (human) = activin A, human (human) (UniProt P08476); assay: SPR; Biacore 2000; receptor ectodomains as analyte over biotinylated ligands on streptavidin-coated CM5 chips; HBS500, 25°C, 10 μl/min; apparent affinities, 1:1 interaction
[1] = biological target: preformed complex of BMP2 with immobilized BMPR-IA ectodomain (human) (UniProt P12643); assay: SPR; ternary complexes by coinjection: 100 nM ligand perfused 2 min over the immobilized type I receptor ectodomain, then 100 nM ligand plus 0 to 64 μM soluble type II receptor ectodomain; HBS500, 25°C; equilibrium dose response
[2] = biological target: preformed complex of BMP7 with immobilized BMPR-IB ectodomain (human | mouse) (UniProt P18075); assay: as above
[3] = biological target: preformed complex of GDF5 with an immobilized type I receptor ectodomain (BMPR-IA or BMPR-IB) (UniProt P43026); assay: as above
[4] = biological target: T1, bone morphogenetic protein 7 (BMP7), human (human), P18075; assay: SPR; Biacore 2000; receptor ectodomains as analyte over biotinylated ligands on streptavidin-coated CM5 chips; HBS500, 25°C, 10 μl/min; apparent affinities, 1:1 interaction; conditions: remark: other sources report otherwise
T1 chain: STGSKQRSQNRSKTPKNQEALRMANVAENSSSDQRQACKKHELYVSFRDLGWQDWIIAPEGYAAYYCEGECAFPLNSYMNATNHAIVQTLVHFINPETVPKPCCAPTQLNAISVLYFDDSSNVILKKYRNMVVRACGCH

[5] = biological target: T2, activin receptor type I (ActR-I) ectodomain, human (human), Q04771; assay: SPR; Biacore 2000; ligands as analyte over biotinylated receptor ectodomains (about 200 RU) on streptavidin-coated CM5 chips; HBS500 (10 mM HEPES pH 7.4, 500 mM NaCl, 3.4 mM EDTA, 0.005% P20), 25°C, 10 μl/min; apparent affinities, 1:2 interaction with avidity; conditions: remark: other sources report otherwise
T2 chain: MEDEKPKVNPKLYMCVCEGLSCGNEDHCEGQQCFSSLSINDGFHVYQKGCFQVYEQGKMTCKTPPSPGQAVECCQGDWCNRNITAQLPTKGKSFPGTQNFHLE

Kd (activin A, human (human)): 890 nM | koff (activin A, human (human)): 0.076 s⁻¹ | kon (activin A, human (human)): 100000 M⁻¹ s⁻¹ | Kd [1]: 22 µM | Kd [2]: 16 µM | Kd [3]: 32 µM
B1: BMP receptor II (BMPR-II) ectodomain, human (receptor)
chain: RLCAFKDPYQQDLGIGESRISHENGTILCSKGSTCYGLWEKSKGDINLVKQGCWSHIGDPQECHYEECVVTTTPPSIQNGTYRFCCCSTDLCNVNFTENFPPPDTTPLSPPHSFNRDET
modifications: N-biotinylated (sulfo-NHS-LC-biotin) where immobilised

Kd [4]: 58 µM
B2: activin receptor type I (ActR-I) ectodomain, human, Q04771 21-123 (receptor)
chain: MEDEKPKVNPKLYMCVCEGLSCGNEDHCEGQQCFSSLSINDGFHVYQKGCFQVYEQGKMTCKTPPSPGQAVECCQGDWCNRNITAQLPTKGKSFPGTQNFHLE
modifications: here or on the partner: N-biotinylated (sulfo-NHS-LC-biotin) where immobilised; biotin (sulfo-NHS-LC-biotin) where immobilised

KD (eq) [5]: > 500 nM | Kd [5]: > 500 nM
B3: bone morphogenetic protein 7 (BMP7), human, P18075 293-431 (ligand)
chain: STGSKQRSQNRSKTPKNQEALRMANVAENSSSDQRQACKKHELYVSFRDLGWQDWIIAPEGYAAYYCEGECAFPLNSYMNATNHAIVQTLVHFINPETVPKPCCAPTQLNAISVLYFDDSSNVILKKYRNMVVRACGCH
modifications: here or on the partner: biotin (sulfo-NHS-LC-biotin) where immobilised; N-biotinylated (sulfo-NHS-LC-biotin) where immobilised
